US20210214447A1 (SHANGHAI INSTITUTE OF MATERIA MEDICA CHINESE ACADEMY OF …, published 2021)

T1: extracellular domain of human AXL protein (AXL-ECD) (human, UniProt P30530 31-449)
T1 construct: expressed in HEK293T cells; coated on the ELISA plate; also called AXL-ECD protein; human AXL extracellular domain protein
T1 sequence: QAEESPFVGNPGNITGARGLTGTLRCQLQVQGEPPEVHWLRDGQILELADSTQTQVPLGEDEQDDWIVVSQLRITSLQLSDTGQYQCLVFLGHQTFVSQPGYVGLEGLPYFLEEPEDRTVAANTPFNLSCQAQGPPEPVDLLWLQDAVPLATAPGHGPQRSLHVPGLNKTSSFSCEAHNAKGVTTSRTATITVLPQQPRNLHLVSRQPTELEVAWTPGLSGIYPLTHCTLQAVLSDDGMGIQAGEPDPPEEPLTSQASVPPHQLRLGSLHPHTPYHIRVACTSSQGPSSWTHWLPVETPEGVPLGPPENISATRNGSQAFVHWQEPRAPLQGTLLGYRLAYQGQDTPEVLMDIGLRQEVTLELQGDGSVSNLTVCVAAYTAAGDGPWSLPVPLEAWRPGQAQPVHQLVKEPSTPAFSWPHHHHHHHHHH

T2: human AXL on the surface of tumor cells (human, UniProt P30530 26-894)
T2 construct: whole, on cells; endogenous protein of human tumor cell lines; the cell line is named under assay or readout; also called AXL on the cell surface
T2 sequence (looked up): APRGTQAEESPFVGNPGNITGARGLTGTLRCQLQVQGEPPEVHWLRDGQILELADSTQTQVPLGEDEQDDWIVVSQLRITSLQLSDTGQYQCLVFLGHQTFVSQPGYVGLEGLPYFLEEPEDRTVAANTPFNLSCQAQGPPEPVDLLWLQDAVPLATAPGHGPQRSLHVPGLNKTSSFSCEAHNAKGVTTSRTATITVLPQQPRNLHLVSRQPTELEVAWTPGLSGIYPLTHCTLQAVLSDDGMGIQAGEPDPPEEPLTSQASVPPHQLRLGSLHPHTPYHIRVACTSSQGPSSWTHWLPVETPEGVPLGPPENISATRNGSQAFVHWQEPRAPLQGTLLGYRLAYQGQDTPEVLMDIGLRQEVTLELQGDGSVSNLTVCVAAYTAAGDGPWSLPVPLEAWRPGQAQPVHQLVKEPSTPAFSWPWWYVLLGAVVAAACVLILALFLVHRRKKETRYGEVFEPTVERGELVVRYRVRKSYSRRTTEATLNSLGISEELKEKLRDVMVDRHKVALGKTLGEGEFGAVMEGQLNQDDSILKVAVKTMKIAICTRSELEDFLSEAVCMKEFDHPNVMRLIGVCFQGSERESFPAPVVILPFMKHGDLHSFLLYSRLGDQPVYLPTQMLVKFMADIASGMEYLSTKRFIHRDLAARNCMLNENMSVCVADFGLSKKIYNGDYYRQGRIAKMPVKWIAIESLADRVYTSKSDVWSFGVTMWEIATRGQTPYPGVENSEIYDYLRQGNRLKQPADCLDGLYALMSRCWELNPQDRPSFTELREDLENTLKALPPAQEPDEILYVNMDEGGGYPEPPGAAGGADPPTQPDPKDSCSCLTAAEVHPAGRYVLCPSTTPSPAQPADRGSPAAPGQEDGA


What was measured:
[1] = molecular target: T1, extracellular domain of human AXL …; test: ELISA, plate-coated AXL-ECD
Experimental: The extracellular domain of AXL protein (AXL-ECD) was diluted to […] with the coating solution, and coated onto ELISA plate with 100 μL/well at 4° C. overnight. The excess antigen was washed off. The plate was blocked with 1% BSA at room temperature for 2 h, then each monoclonal antibody in a 3-fold dilution was added at 100 µL/well. The plate was incubated at room temperature for 1 h; the unbound antibody was washed off, and appropriate concentration of anti-mouse secondary antibody labeled with horseradish peroxidase was added at 100 µL/well. The plate was incubated at room temperature for 0.5 h. The unbound secondary antibody was washed off. TMB Substrate was added and reacted for about 15 minutes. 1N HCL was added at 50 µL/well to stop the color reaction. Then the absorbance was measured at 450 nm and the obtained data was analyzed.
24 humanized antibodies in Table-6 were diluted by gradient, and their affinity to AXL-ECD protein was determined by ELISA. The experimental method was referred to Example 4.

[2] = molecular target: T2, human AXL on the surface of tumor cells; test: FACS on LCLC-103H cells
Experimental: (§1) Then the obtained solutions were incubated at 4° C. for 1 h, the cells were washed twice with PBS to remove unbound primary antibody, and then the target cells were incubated with 200 μL PE-labeled secondary antibody (2 μg/mL) at 4° C. for 30 min. The cells were washed twice with PBS to remove unbound secondary antibody. Finally, the cells were resuspended in 200 μL PBS, and the binding affinity of the test antibody to AXL on the cell surface was determined by a flow cytometer (FACSCalibur)
The experimental method was referred to Example 8.

[3] = molecular target: T2, human AXL on the surface of tumor cells; test: FACS on MDA-MB-231 cells
Experimental: as §1
24 humanized antibodies in Table-6 were diluted by gradient, and their affinities to AXL, on the surface of MDA-MB-231 cells were determined by flow cytometer. The experimental method was referred to Example 8.

| Binder | EC50 [1] [nM] | TOP (OD450) [1] [OD450] | EC50 [2] [nM] | EC50 [3] [nM] | Highest MFI value (FACSCalibur) [3] [MFI] |
| --- | --- | --- | --- | --- | --- |
| Hu002-5 (antibody, V domains shown, humanized from mAb002c; also called Hu002c-5) VH: QVQLVQSGAEVKKPGASVKVSCKASGYPFTDFYINWVRQAPGQGLEWMGWIYPGSGNTKYNEKFKGRVTLTVDTSISTAYMELSRLRSDDTAVYYCARSTGFFDYWGQGTLVTVSS VL: EIVLTQSPATLSLSPGERATLSCSASSSIGYMYWYQQKPGQAPRLLIYLTSNLASGIPARFSGSGSGTDYTLTISSLEPEDFAVYYCQQWSSNPPTFGQGTKLEIK | 0.05 | 3.59 | 0.36 | 0.114 | 275 |
| Hu002-23 (antibody, V domains shown, humanized from mAb002c; also called Hu002c-23) VH: QVQLVQSGAEVKKPGASVKVSCKASGYPFTDFYINWVRQAPGQGLEWMGWIYPGSGNTKYNEKFKGRVTLTVDTSISTAYMELSRLRSDDTAVYYCARSTGFFDYWGQGTLVTVSS VL: QIVLTQSPDFQSVTPKEKVTITCSASSSIGYMYWYQQKPDQSPKSLIYLTSNLASGVPSRFSGSGSGTDYTLTINSLEAEDAATYYCQQWSSNPPTFGQGTKLEIK | 0.057 | 3.69 | – | 0.098 | 276 |
| Hu002-18 (antibody, V domains shown, humanized from mAb002c; also called Hu002c-18) VH: QVQLVQSGAEVKKPGASVKVSCKASGYPFTDFYINWVKQAPGQGLEWIGWIYPGSGNTKYNEKFKGRVTLTVDTSISTAYMELSRLRSDDTAVYYCARSTGFFDYWGQGTLVTVSS VL: EIVLTQSPDFQSVTPKEKVTITCSASSSIGYMYWYQQKPDQSPKLLIYLTSNLASGVPSRFSGSGSGTDYTLTINSLEAEDAATYYCQQWSSNPPTFGQGTKLEIK | 0.055 | 3.71 | – | 0.111 | 277 |
| Hu002-22 (antibody, V domains shown, humanized from mAb002c; also called Hu002c-22) VH: QVQLVQSGAEVKKPGASVKVSCKASGYPFTDFYINWVRQAPGQGLEWMGWIYPGSGNTKYNEKFKGRVTMTRDTSISTAYMELSRLRSDDTAVYYCARSTGFFDYWGQGTLVTVSS VL: QIVLTQSPDFQSVTPKEKVTITCSASSSIGYMYWYQQKPDQSPKSLIYLTSNLASGVPSRFSGSGSGTDYTLTINSLEAEDAATYYCQQWSSNPPTFGQGTKLEIK | 0.059 | 3.67 | – | 0.134 | 276 |
| Hu002-19 (antibody, V domains shown, humanized from mAb002c; also called Hu002c-19) VH: QVQLVQSGAEVKKPGASVKVSCKASGYPFTDFYINWVRQAPGQGLEWMGWIYPGSGNTKYNEKFKGRVTMTRDTSISTAYMELSRLRSDDTAVYYCARSTGFFDYWGQGTLVTVSS VL: EIVLTQSPDFQSVTPKEKVTITCSASSSIGYMYWYQQKPDQSPKSLIYLTSNLASGVPSRFSGSGSGTDYTLTINSLEAEDAATYYCQQWSSNPPTFGQGTKLEIK | 0.059 | 3.73 | – | 0.121 | 278 |
| Hu002-1 (antibody, V domains shown, humanized from mAb002c; also called Hu002c-1) VH: QVQLVQSGAEVKKPGASVKVSCKASGYPFTDFYINWVRQAPGQGLEWMGWIYPGSGNTKYNEKFKGRVTMTRDTSISTAYMELSRLRSDDTAVYYCARSTGFFDYWGQGTLVTVSS VL: EIVLTQSPATLSLSPGERATLSCSASSSIGYMYWYQQKPGQAPRLLIYLTSNLASGIPARFSGSGSGTDFTLTISSLEPEDFAVYYCQQWSSNPPTFGQGTKLEIK | 0.07 | 3.62 | 0.28 | 0.101 | 277 |

Other lines, results leading:

| EC50 [1] [nM] | TOP (OD450) [1] [OD450] | EC50 [2] [nM] | EC50 [3] [nM] | Highest MFI value (FACSCalibur) [3] [MFI] | Binder |
| --- | --- | --- | --- | --- | --- |
| 0.055 | 3.6 | 0.49 | 0.09 | 277 | Hu002-4 (antibody, V domains shown, humanized from mAb002c; also called Hu002c-4) VH: QVQLVQSGAEVKKPGASVKVSCKASGYPFTDFYINWVRQAPGQGLEWMGWIYPGSGNTKYNEKFKGRVTMTRDTSISTAYMELSRLRSDDTAVYYCARSTGFFDYWGQGTLVTVSS VL: EIVLTQSPATLSLSPGERATLSCSASSSIGYMYWYQQKPGQAPRLLIYLTSNLASGIPARFSGSGSGTDYTLTISSLEPEDFAVYYCQQWSSNPPTFGQGTKLEIK |
| 0.051 | 3.65 | – | 0.098 | 262 | Hu002-24 (antibody, V domains shown, humanized from mAb002c; also called Hu002c-24) VH: QVQLVQSGAEVKKPGASVKVSCKASGYPFTDFYINWVKQAPGQGLEWIGWIYPGSGNTKYNEKFKGRVTLTVDTSISTAYMELSRLRSDDTAVYYCARSTGFFDYWGQGTLVTVSS VL: QIVLTQSPDFQSVTPKEKVTITCSASSSIGYMYWYQQKPDQSPKSLIYLTSNLASGVPSRFSGSGSGTDYTLTINSLEAEDAATYYCQQWSSNPPTFGQGTKLEIK |
| 0.054 | 3.71 | – | 0.099 | 277 | Hu002-20 (antibody, V domains shown, humanized from mAb002c; also called Hu002c-20) VH: QVQLVQSGAEVKKPGASVKVSCKASGYPFTDFYINWVRQAPGQGLEWMGWIYPGSGNTKYNEKFKGRVTLTVDTSISTAYMELSRLRSDDTAVYYCARSTGFFDYWGQGTLVTVSS VL: EIVLTQSPDFQSVTPKEKVTITCSASSSIGYMYWYQQKPDQSPKSLIYLTSNLASGVPSRFSGSGSGTDYTLTINSLEAEDAATYYCQQWSSNPPTFGQGTKLEIK |
| 0.046 | 3.71 | – | 0.132 | 273 | Hu002-21 (antibody, V domains shown, humanized from mAb002c; also called Hu002c-21) VH: QVQLVQSGAEVKKPGASVKVSCKASGYPFTDFYINWVKQAPGQGLEWIGWIYPGSGNTKYNEKFKGRVTLTVDTSISTAYMELSRLRSDDTAVYYCARSTGFFDYWGQGTLVTVSS VL: EIVLTQSPDFQSVTPKEKVTITCSASSSIGYMYWYQQKPDQSPKSLIYLTSNLASGVPSRFSGSGSGTDYTLTINSLEAEDAATYYCQQWSSNPPTFGQGTKLEIK |
| 0.047 | 3.76 | – | 0.082 | 282 | Hu002-16 (antibody, V domains shown, humanized from mAb002c; also called Hu002c-16) VH: QVQLVQSGAEVKKPGASVKVSCKASGYPFTDFYINWVRQAPGQGLEWMGWIYPGSGNTKYNEKFKGRVTMTRDTSISTAYMELSRLRSDDTAVYYCARSTGFFDYWGQGTLVTVSS VL: EIVLTQSPDFQSVTPKEKVTITCSASSSIGYMYWYQQKPDQSPKLLIYLTSNLASGVPSRFSGSGSGTDYTLTINSLEAEDAATYYCQQWSSNPPTFGQGTKLEIK |
